Assay [1] concerns the target huFXII-his (human) (UniProt P00748). Kind of assay: cell-based or functional assay.
Assay [2] has the same target. The assay can be described thus: ELISA, huFXII-his coated at 1 µg/ml, HRP anti-human secondary, OD450.

19 molecules from EP4729546A1 (Jiangsu BioJeTay Biotechnology Co., Ltd., dated 2026) can be followed below.

huFXII-his (human), sequence (P00748 20-615, form in doubt): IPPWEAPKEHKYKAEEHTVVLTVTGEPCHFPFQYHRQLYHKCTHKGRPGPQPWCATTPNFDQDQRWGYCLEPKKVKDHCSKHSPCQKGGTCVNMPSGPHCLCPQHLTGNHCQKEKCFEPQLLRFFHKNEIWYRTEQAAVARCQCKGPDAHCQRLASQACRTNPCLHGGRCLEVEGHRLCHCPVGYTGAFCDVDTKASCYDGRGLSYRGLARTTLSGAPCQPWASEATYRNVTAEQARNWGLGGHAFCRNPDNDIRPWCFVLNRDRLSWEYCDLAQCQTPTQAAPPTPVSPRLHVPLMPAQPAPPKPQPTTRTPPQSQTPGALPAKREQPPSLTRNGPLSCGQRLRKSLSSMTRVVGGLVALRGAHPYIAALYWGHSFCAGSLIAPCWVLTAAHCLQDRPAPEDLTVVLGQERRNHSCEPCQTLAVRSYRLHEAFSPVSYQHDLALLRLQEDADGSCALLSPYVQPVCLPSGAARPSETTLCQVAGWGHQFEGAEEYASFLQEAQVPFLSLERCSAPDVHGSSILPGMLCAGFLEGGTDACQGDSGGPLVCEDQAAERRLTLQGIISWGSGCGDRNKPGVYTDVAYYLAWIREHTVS

B1: FX-Y17-Y2 (antibody, V domains shown)
VH: EVQLLESGGGLVQPGGSLRLSCAGSGFSFGSQTMSWVRQAPGKGLEWVSSISHISGRTYYADSVKGRFTISRDNSKNTLYLQMNSLRAEDTAVYYCTKSHAFDVWGQGTMVTVSS
VL: EIVLTQSPATLSVSPGERATLSCRASQSVYSALAWYQQKPGQAPRLLIYGASTRATGIPARFSGSGSGTEFTLTISSLQSEDFAVYYCQQNNKWPLSFGGGTKVEIK
In general, EC50 refers to the concentration that produces a half-maximal response. In assay [1], B1 gave an IC50 of inhibition of cleavage of chemical substrate S2302 by FXIIa (OD405) of 0.0178 µg/mL. This molecule also displayed an EC50 in assay [2] of 0.164 µg/mL.

B2: FX-Y17-Y7 (antibody, V domains shown)
VH: EVQLLESGGGLVQPGGSLRLSCAGSGFSFGSQTMSWVRQAPGKGLEWVSSISVISGRAYYADSVKGRFTISRDNSKNTLYLQMNSLRAEDTAVYYCTKSHAFDVWGQGTMVTVSS
VL: EIVLTQSPATLSVSPGERATLSCRASQSVYSALAWYQQKPGQAPRLLIYGASTRATGIPARFSGSGSGTEFTLTISSLQSEDFAVYYCQQYHKWPLSFGGGTKVEIK
As for B2, the IC50 of inhibition of cleavage of chemical substrate S2302 by FXIIa (OD405) in assay [1] is 0.02 µg/mL. In assay [2], this molecule came in with an EC50 of 0.136 µg/mL.

B3: FX-Y17-Y37 (antibody, V domains shown)
VH: EVQLLESGGGLVQPGGSLRLSCAGSGFSFGSQTMSWVRQAPGKGLEWVSSISVISGRSYYADSVKGRFTISRDNSKNTLYLQMNSLRAEDTAVYYCTKSHAFDVWGQGTMVTVSS
VL: EIVLTQSPATLSVSPGERATLSCRASQSVWSNLAWYQQKPGQAPRLLIYGASTRATGIPARFSGSGSGTEFTLTISSLQSEDFAVYYCQQYHKWPLSFGGGTKVEIK
The molecule B3 showed an IC50 of inhibition of cleavage of chemical substrate S2302 by FXIIa (OD405) in assay [1] of 0.0143 µg/mL. The molecule further registered an EC50 in assay [2] of 0.0629 µg/mL.

B4: FX-Y17-Y18 (antibody, V domains shown)
VH: EVQLLESGGGLVQPGGSLRLSCAGSGFSFGSQTMSWVRQAPGKGLEWVSSISVISGRSYYADSVKGRFTISRDNSKNTLYLQMNSLRAEDTAVYYCTKHHAFDVWGQGTMVTVSS
VL: EIVLTQSPATLSVSPGERATLSCRASQSVWSNLAWYQQKPGQAPRLLIYGASTRATGIPARFSGSGSGTEFTLTISSLQSEDFAVYYCQQYHKWPLSFGGGTKVEIK
B4 yielded an IC50 of inhibition of cleavage of chemical substrate S2302 by FXIIa (OD405) in assay [1] of 0.0242 µg/mL. This molecule also registered an EC50 in assay [2] of 0.172 µg/mL.

B5: FX-Y17-Y13 (antibody, V domains shown)
VH: EVQLLESGGGLVQPGGSLRLSCAGSGFSFGSQTMSWVRQAPGKGLEWVSSISVISRRTYYADSVKGRFTISRDNSKNTLYLQMNSLRAEDTAVYYCTRSHAFDVWGQGTMVTVSS
VL: EIVLTQSPATLSVSPGERATLSCRASQSVYSNLAWYQQKPGQAPRLLIYGASTRATGIPARFSGSGSGTEFTLTISSLQSEDFAVYYCQQYHKWPLSFGGGTKVEIK
Regarding B5, the IC50 of inhibition of cleavage of chemical substrate S2302 by FXIIa (OD405) in assay [1] was found to be 0.0259 µg/mL. In assay [2], this molecule showed an EC50 of 0.128 µg/mL.

B6: FX-Y17-Y14 (antibody, V domains shown)
VH: EVQLLESGGGLVQPGGSLRLSCAGSGFSFGSQTMSWVRQAPGKGLEWVSSISHISGRTYYADSVKGRFTISRDNSKNTLYLQMNSLRAEDTAVYYCTKSHRFDVWGQGTMVTVSS
VL: EIVLTQSPATLSVSPGERATLSCRASQSVYSALAWYQQKPGQAPRLLIYGASTRATGIPARFSGSGSGTEFTLTISSLQSEDFAVYYCQQNNKWPLSFGGGTKVEIK
Turning to B6, the IC50 of inhibition of cleavage of chemical substrate S2302 by FXIIa (OD405) in assay [1] worked out at 0.0138 µg/mL. Moreover, in assay [2], the concentration for a half-maximal effect (EC50) was determined as 0.14 µg/mL.

B7: FX-Y17-Y12 (antibody, V domains shown)
VH: EVQLLESGGGLVQPGGSLRLSCAGSGFSFGSQTMSWVRQAPGKGLEWVSSISVISGRTYYADSVKGRFTISRDNSKNTLYLQMNSLRAEDTAVYYCTKWHAFDVWGQGTMVTVSS
VL: EIVLTQSPATLSVSPGERATLSCRASQSLYSHLAWYQQKPGQAPRLLIYGASTRATGIPARFSGSGSGTEFTLTISSLQSEDFAVYYCQQYKKWPLSFGGGTKVEIK
As to B7, the IC50 of inhibition of cleavage of chemical substrate S2302 by FXIIa (OD405) in assay [1] is 0.0296 µg/mL. Further, the EC50 in assay [2] was 0.364 µg/mL.

B8: FX-Y17-Y30 (antibody, V domains shown)
VH: EVQLLESGGGLVQPGGSLRLSCAGSGFSFGSQTMSWVRQAPGKGLEWVSSISVISGRTYYADSVKGRFTISRDNSKNTLYLQMNSLRAEDTAVYYCAKSHAFDVWGQGTMVTVSS
VL: EIVLTQSPATLSVSPGERATLSCRASQSVFSNLAWYQQKPGQAPRLLIYGASTRATGIPARFSGSGSGTEFTLTISSLQSEDFAVYYCQQYHWWPLSFGGGTKVEIK
In assay [1], B8 registered an IC50 of inhibition of cleavage of chemical substrate S2302 by FXIIa (OD405) of 0.0127 µg/mL. Besides, the EC50 in assay [2] is 0.083 µg/mL.

B9: FX-Y17-Y31 (antibody, V domains shown)
VH: EVQLLESGGGLVQPGGSLRLSCAGSGFSFGSQTMSWVRQAPGKGLEWVSSISVISGRNYYADSVKGRFTISRDNSKNTLYLQMNSLRAEDTAVYYCAKSHAFDVWGQGTMVTVSS
VL: EIVLTQSPATLSVSPGERATLSCRASQSVWSNLAWYQQKPGQAPRLLIYGASTRATGIPARFSGSGSGTEFTLTISSLQSEDFAVYYCQQYHKWPLSFGGGTKVEIK
In assay [1], B9 showed an IC50 of inhibition of cleavage of chemical substrate S2302 by FXIIa (OD405) of 0.0156 µg/mL. This molecule also yielded an EC50 in assay [2] of 0.117 µg/mL.

B10: FX-Y17-Y8 (antibody, V domains shown)
VH: EVQLLESGGGLVQPGGSLRLSCAGSGFSFGSQTMSWVRQAPGKGLEWVSSISVISRRTYYADSVKGRFTISRDNSKNTLYLQMNSLRAEDTAVYYCTKSHAFDVWGQGTMVTVSS
VL: EIVLTQSPATLSVSPGERATLSCRASQSVWSNLAWYQQKPGQAPRLLIYGASTRATGIPARFSGSGSGTEFTLTISSLQSEDFAVYYCQQYHKWPLSFGGGTKVEIK
B10 gave an IC50 of inhibition of cleavage of chemical substrate S2302 by FXIIa (OD405) in assay [1] of 0.0196 µg/mL. For the same molecule, in assay [2], the EC50 stood at 0.237 µg/mL.

B11: FX-Y17-Y10 (antibody, V domains shown)
VH: EVQLLESGGGLVQPGGSLRLSCAGSGFSFGSQTMSWVRQAPGKGLEWVSSISVISGRAYYADSVKGRFTISRDNSKNTLYLQMNSLRAEDTAVYYCTKAHAFDVWGQGTMVTVSS
VL: EIVLTQSPATLSVSPGERATLSCRASQSVYSALAWYQQKPGQAPRLLIYGASTRATGIPARFSGSGSGTEFTLTISSLQSEDFAVYYCQQYHKWPLSFGGGTKVEIK
As for B11, the IC50 of inhibition of cleavage of chemical substrate S2302 by FXIIa (OD405) in assay [1] turned out to be 0.028 µg/mL. The same molecule came in with an EC50 in assay [2] of 0.161 µg/mL.

B12: FX-Y17-Y9 (antibody, V domains shown)
VH: EVQLLESGGGLVQPGGSLRLSCAGSGFSFGSQTMSWVRQAPGKGLEWVSSISVISGRKYYADSVKGRFTISRDNSKNTLYLQMNSLRAEDTAVYYCAKSHAFDVWGQGTMVTVSS
VL: EIVLTQSPATLSVSPGERATLSCRASQSVYSALAWYQQKPGQAPRLLIYGASTRATGIPARFSGSGSGTEFTLTISSLQSEDFAVYYCQQYHKWPLSFGGGTKVEIK
As to B12, the IC50 of inhibition of cleavage of chemical substrate S2302 by FXIIa (OD405) in assay [1] came out at 0.0244 µg/mL. In assay [2], this molecule registered an EC50 of 0.228 µg/mL.

B13: FX-Y17-Y15 (antibody, V domains shown)
VH: EVQLLESGGGLVQPGGSLRLSCAGSGFSFGSQTMSWVRQAPGKGLEWVSSISVISGRPYYADSVKGRFTISRDNSKNTLYLQMNSLRAEDTAVYYCTKSHAFDVWGQGTMVTVSS
VL: EIVLTQSPATLSVSPGERATLSCRASQSVYSALAWYQQKPGQAPRLLIYGASTRATGIPARFSGSGSGTEFTLTISSLQSEDFAVYYCQQYHKWPLSFGGGTKVEIK
As for B13, the IC50 of inhibition of cleavage of chemical substrate S2302 by FXIIa (OD405) in assay [1] is 0.0202 µg/mL. In assay [2], this molecule displayed an EC50 of 0.131 µg/mL.

B14: FX-Y17-Y17 (antibody, V domains shown)
VH: EVQLLESGGGLVQPGGSLRLSCAGSGFSFGSQTMSWVRQAPGKGLEWVSSISYISGRTYYADSVKGRFTISRDNSKNTLYLQMNSLRAEDTAVYYCTKGHAFDVWGQGTMVTVSS
VL: EIVLTQSPATLSVSPGERATLSCRASQSVWSNLAWYQQKPGQAPRLLIYGASTRATGIPARFSGSGSGTEFTLTISSLQSEDFAVYYCQQYHKWPLSFGGGTKVEIK
With B14, the IC50 of inhibition of cleavage of chemical substrate S2302 by FXIIa (OD405) in assay [1] was determined as 0.0199 µg/mL. This molecule also showed an EC50 in assay [2] of 0.169 µg/mL.

B15: FX-Y17-Y16 (antibody, V domains shown)
VH: EVQLLESGGGLVQPGGSLRLSCAGSGFSFGSQTMSWVRQAPGKGLEWVSSISVISGRSYYADSVKGRFTISRDNSKNTLYLQMNSLRAEDTAVYYCAKSHAFDVWGQGTMVTVSS
VL: EIVLTQSPATLSVSPGERATLSCRASQSVYSALAWYQQKPGQAPRLLIYGASTRATGIPARFSGSGSGTEFTLTISSLQSEDFAVYYCQQYHKWPLSFGGGTKVEIK
B15: the IC50 of inhibition of cleavage of chemical substrate S2302 by FXIIa (OD405) in assay [1] was found to be 0.021 µg/mL. In addition, the EC50 in assay [2] was found to be 0.125 µg/mL.

B16: FX-Y17-Y40 (antibody, V domains shown)
VH: EVQLLESGGGLVQPGGSLRLSCAGSGFSFGSQTMSWVRQAPGKGLEWVSSISVISGRTYYADSVKGRFTISRDNSKNTLYLQMNSLRAEDTAVYYCTKAHAFDVWGQGTMVTVSS
VL: EIVLTQSPATLSVSPGERATLSCRASQSVWSNLAWYQQKPGQAPRLLIYGASTRATGIPARFSGSGSGTEFTLTISSLQSEDFAVYYCQQYHKWPLSFGGGTKVEIK
On to B16, for which the IC50 of inhibition of cleavage of chemical substrate S2302 by FXIIa (OD405) in assay [1] was determined as 0.0155 µg/mL. For the same molecule, the EC50 in assay [2] was found to be 0.0781 µg/mL.

B17: FX-Y17-Y5 (antibody, V domains shown)
VH: EVQLLESGGGLVQPGGSLRLSCAGSGFSFGSQTMSWVRQAPGKGLEWVSSISVISGRYYYADSVKGRFTISRDNSKNTLYLQMNSLRAEDTAVYYCTKSHAFDVWGQGTMVTVSS
VL: EIVLTQSPATLSVSPGERATLSCRASQSVYSALAWYQQKPGQAPRLLIYGASTRATGIPARFSGSGSGTEFTLTISSLQSEDFAVYYCQQYHKWPLSFGGGTKVEIK
For B17, in assay [1], the IC50 of inhibition of cleavage of chemical substrate S2302 by FXIIa (OD405) came to 0.0254 µg/mL. In assay [2], this molecule gave an EC50 of 0.167 µg/mL.

B18: FX-Y17-Y46 (antibody, V domains shown)
VH: EVQLLESGGGLVQPGGSLRLSCAGSGFSFGSQTMSWVRQAPGKGLEWVSSISYISGRTYYADSVKGRFTISRDNSKNTLYLQMNSLRAEDTAVYYCTKGHAFDVWGQGTMVTVSS
VL: EIVLTQSPATLSVSPGERATLSCRASQSVWSNLAWYQQKPGQAPRLLIYGASTRATGIPARFSGSGSGTEFTLTISSLQSEDFAVYYCQQYQKWPLSFGGGTKVEIK
As for B18, the IC50 of inhibition of cleavage of chemical substrate S2302 by FXIIa (OD405) in assay [1] was determined as 0.0321 µg/mL. Also, the EC50 in assay [2] was determined as 0.257 µg/mL.

B19: FX-Y17-Y3 (antibody, V domains shown)
VH: EVQLLESGGGLVQPGGSLRLSCAGSGFSFGSQTMSWVRQAPGKGLEWVSSISYISGRTYYADSVKGRFTISRDNSKNTLYLQMNSLRAEDTAVYYCTKSHAFDVWGQGTMVTVSS
VL: EIVLTQSPATLSVSPGERATLSCRASQSVWSNLAWYQQKPGQAPRLLIYGASTRATGIPARFSGSGSGTEFTLTISSLQSEDFAVYYCQQYHKWPLSFGGGTKVEIK
With B19, in assay [1], the IC50 of inhibition of cleavage of chemical substrate S2302 by FXIIa (OD405) is 0.0154 µg/mL. The EC50 in assay [2] was determined as 0.216 µg/mL.
